Test results from patent US10188706B2, “Plasminogen activator mutants as anti-fibrinolytic agents” (HADASIT MEDICAL RESEARCH SERVICES & DEVELOPMENT LIMITED, priority 2012, dated 2019).
Entries after “also recorded” stand apart in the source; their conditions may differ.

Columns and labels:
plasminogen = molecular target: T1, plasminogen (Homo sapiens, UniProt P00747); test: Ser481-Ala tPA/plasminogen protein interaction assay by co-immunoprecipitation; type: binding
T1 construct: Glu-plasminogen was prepared from human plasma; from tissue; host or cells: human plasma
Experimental: Ser^481-Ala tPA/Plasminogen Protein Interaction Assay by Co-Immunoprecipitation
Human Ser^481-Ala tPA and plasminogen, each at 100 nM final concentration in absence or presence of 1 μM uPA or fibrin degradation products, were incubated with goat polyclonal antibody to plasminogen and incubated with Protein A agarose. The protein A agarose beads were separated by centrifugation, washed, and boiled for 5 min. The beads were precipitated by centrifugation and the samples were run on NuPAGE 4-12%. As a control, 80 ng of human Ser^481-Ala tPA was loaded on the gel. The proteins from the gel were transferred onto a PVDF membrane. The membrane was blocked in milk/PBST before incubation for 1 hr with mouse monoclonal antibody to tPA. Subsequently it was washed, incubated with goat anti-mouse IgG-HRP conjugate, washed again, and detected with ECL.

WT-tPA = test: Fibrinolysis assay in human plasma derived clots, lysis by WT-tPA; type: biochemical
Experimental: (§1) Fibrinolysis Assay in Human Plasma Derived Clots
(§2) Clots were formed by placing human plasma (200 μL) in 16-mm diameter tissue culture wells flowed by adding thrombin (0.4 U/mL final concentration). Fibrinolysis was measured as described in Higazi A A et al., Blood (1998), 92(6):2075-83). Briefly, 10 μL tPA or uPA were placed over the plasma clots for 2 hours at 37° C., photographed and the diameter of the wholes were determined.

uPA [1] = molecular target: T2, uPA (Homo sapiens, UniProt P00749); test: Fibrinolysis assay in human plasma derived clots, lysis by uPA; type: biochemical; conditions: uPA 50 nM; mutant 50 nM; FIG. 2A, 2B
T2 construct: Single-chain urokinase (uPA) was purified, characterized as previously reported; made in house
Experimental: as §1, §2

reteplase = reteplase (Homo sapiens, UniProt P00750); test: Fibrinolysis assay in human plasma derived clots, lysis by reteplase; type: biochemical; conditions: reteplase 20 nM, mutant 10 nM, FIG. 2B
Experimental: as §1, §2

WT tPA = molecular target: T3, WT tPA (Homo sapiens, UniProt P00750); test: Fibrinolysis assay in clots from fresh whole human blood monitored by thromboelastography (TEG), lysis by WT tPA; type: biochemical; conditions: WT tPA 10 nM; 50 or 500 nM tPA-S481A; FIG. 2C
T3 construct: purchased Genentech (South San Francisco, Calif.)
Experimental: (§3) Fibrinolysis Assay in Blood Clots Derived from Fresh Whole Human Blood
(§4) Clot viscoelastic properties were assessed by thromboelastography (TEG®, Haemoscope) and rotational thromboelastometry (ROTEM®, Pentapharm). Both systems use a vertical pin within a cup that contains the WB sample. In TEG®, the cup oscillates and the pin is stationary whereas in ROTEM®, the cup is stationary while the pin oscillates. As a clot forms between the cup and the pin, the reduction in transmitted rotation from the cup to the pin (TEG®) or impedance to the oscillatory movement of the pin (ROTEM®) is detected and a trace is generated.

uPA [2] = molecular target: T2, uPA; test: Fibrinolysis assay in clots from fresh whole human blood monitored by thromboelastography (TEG), lysis by uPA; type: biochemical; conditions: uPA 10 nM; 50 or 500 nM tPA-S481A; FIG. 2C
Experimental: as §3, §4

tPA = test: Plasminogen activator activity, chromogenic assay without fibrin, activation by tPA; type: biochemical, human; conditions: FIG. 2D; for plasminogen activation by tPA in the absence of fibrin, in the presence of TA: mutant 100 nM added together with TA
Experimental: (§5) Plasminogen Activator Activity
(§6) Plasminogen activator activity was determined by adding tPA (50 nM) or uPA (20 nM), to a reaction mixture containing Glu-plasminogen and the plasmin chromogenic substrate Spectrazyme PL (100 μM) in phosphate-buffered saline (PBS) at 37° C., and the light absorbance at 405 nm was measured continuously over time. The initial velocities of plasmin generation at the different conditions were calculated from the change in the A405 nm over time. The initial velocity of the reaction at each plasminogen concentration was obtained by calculating the change in the rate of A405 over different time intervals and the results were expressed as the change in optical density (ΔOD) per minute, which represents the slope of the initial velocity of plasminogen activation (Higazi A et al., J Biol Chem. (1995), 270(29):17375-80).

uPA [3] = molecular target: T2, uPA; test: Plasminogen activator activity, chromogenic assay without fibrin, activation by uPA; type: biochemical; conditions: FIG. 2D; for plasminogen activation by uPA in the absence of fibrin, in the presence of TA: mutant 100 nM added together with TA
Experimental: as §5, §6

WT mice subjected to CHI = test: Closed head injury (CHI) model of TBI in WT mice; type: in vivo, mouse
Experimental: Eight to twelve weeks old C57 mice obtained from Harlan, Israel. Mice were administered standard laboratory chow and water ad libitum, and kept in controlled temperature and light conditions. Animal experiments were carried out according to the guidelines of the Hebrew University-Institutional Committee for Care and Use of Laboratory Animals, and with the committee's approval.
(§7) Closed Head Injury (CHI) Model
(§8) Head trauma was induced by using a modified weight-drop device, as previously described (Chen Y. et al. (1996) J. Neurotrauma, 13:557-568). Briefly, after induction of ether anesthesia, a midline longitudinal incision was made, the skin was retracted and the skull was exposed. The left anterior frontal area was identified and a Teflon tipped cone (2-mm diameter) was placed 1 mm lateral to the midline, in the midcoronal plane. The head was held in place manually and a 75-g weight was dropped on the cone from a height of 18 cm, resulting in focal injury to the left hemisphere. After trauma, the mice received supporting oxygenation with 95% 02 for no longer than 2 min and were then returned to their cages. In sham controls only anesthesia and skin incision were carried out.

[4] = tested on: tPA-/- and uPA-/- mice subjected to CHI; test: Closed head injury (CHI) model in tPA-/- and uPA-/- mice; type: in vivo, mouse; conditions: WT-tPA or WT-uPA 5 mg/kg plus equimolar dose of mutant
Description: as §7, §8

[5] = tested on: mice treated with Coumadin and subjected to CHI; test: Closed head injury (CHI) in mice anticoagulated with warfarin (Coumadin); type: in vivo, mouse; conditions: WT mice, INR 2.5; tPA-S481A 1 mg/kg immediately after TBI; Hgb at 2 or 8 hrs; FIG. 6C
Description: as §7, §8

NMDA-Rs = test: Activation of NMDA-Rs by WT-tPA

Sequence of WT-tPA (P00750 36-562): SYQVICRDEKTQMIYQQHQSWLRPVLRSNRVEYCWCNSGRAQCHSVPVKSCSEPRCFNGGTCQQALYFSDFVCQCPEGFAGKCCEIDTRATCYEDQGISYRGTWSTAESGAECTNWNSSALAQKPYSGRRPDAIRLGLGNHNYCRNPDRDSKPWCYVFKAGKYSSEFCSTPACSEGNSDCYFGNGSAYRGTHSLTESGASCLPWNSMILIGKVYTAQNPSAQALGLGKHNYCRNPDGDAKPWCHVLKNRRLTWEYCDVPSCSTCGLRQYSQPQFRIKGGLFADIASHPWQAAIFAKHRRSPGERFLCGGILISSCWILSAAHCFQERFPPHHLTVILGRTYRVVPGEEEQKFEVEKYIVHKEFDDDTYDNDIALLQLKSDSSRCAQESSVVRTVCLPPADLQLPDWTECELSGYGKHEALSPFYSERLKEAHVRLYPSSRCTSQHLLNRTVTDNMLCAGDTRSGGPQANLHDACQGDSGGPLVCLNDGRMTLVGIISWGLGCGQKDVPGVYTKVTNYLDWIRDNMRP
T3 sequence (P00750 36-562): as above

B1: tPA-S^481A: catalytically inactive human tPA variant, Ser481 substituted to Ala; SEQ ID NO. 1 (SEQ ID NO. 12 with N-terminal RS) (protein, listed as Homo sapiens)
chain: GARSYQVICRDEKTQMIYQQHQSWLRPVLRSNRVEYCWCNSGRAQCHSVPVKSCSEPRCFNGGTCQQALYFSDFVCQCPEGFAGKCCEIDTRATCYEDQGISYRGTWSTAESGAECTNWNSSALAQKPYSGRRPDAIRLGLGNHNYCRNPDRDSKPWCYVFKAGKYSSEFCSTPACSEGNSDCYFGNGSAYRGTHSLTESGASCLPWNSMILIGKVYTAQNPSAQALGLGKHNYCRNPDGDAKPWCHVLKNRRLTWEYCDVPSCSTCGLRQYSQPQFRIKGGLFADIASHPWQAAIFAKHRRSPGERFLCGGILISSCWILSAAHCFQERFPPHHLTVILGRTYRVVPGEEEQKFEVEKYIVHKEFDDDTYDNDIALLQLKSDSSRCAQESSVVRTVCLPPADLQLPDWTECELSGYGKHEALSPFYSERLKEAHVRLYPSSRCTSQHLLNRTVTDNMLCAGDTRSGGPQANLHDACQGDAGGPLVCLNDGRMTLVGIISWGLGCGQKDVPGVYTKVTNYLDWIRDNMRP
plasminogen; in the absence of fibrin, 100 nM each
  binding to plasminogen (complex formation): no complexes were formed
plasminogen; in the presence of fibrin, 100 nM each, immunoprecipitated with anti-plasminogen, detected with anti-tPA
  binding to plasminogen (complex formation): binds to plasminogen only in the presence of fibrin; also recorded: formed a stable complex
plasminogen; with fibrin in the presence of 1 μM uPA
  binding to plasminogen (complex formation): inhibited by uPA
WT-tPA; TA tested at its maximal inhibitory concentration, FIG. 2B
  potency as inhibitor of fibrinolysis compared with TA: more potent inhibitors of fibrinolysis than TA
WT-tPA; WT-tPA 20 nM, mutant 50 nM, FIG. 2A, 2B
  lysis of human plasma derived clots by WT-tPA: inhibited lysis
uPA [1]
  lysis of human plasma derived clots by uPA: inhibited lysis
reteplase
  clot lysis induced by reteplase: inhibit the clot lysis induced by reteplase
reteplase; listed as tPA^Ser481Ala
  clot lysis induced by reteplase: inhibit the fibrinolysis
WT tPA
  lysis of clots from fresh whole human blood monitored by TEG, by WT tPA: inhibited lysis
uPA [2]
  lysis of clots from fresh whole human blood monitored by TEG, by uPA: inhibited lysis
tPA
  plasminogen activation by tPA in the absence of fibrin, in the presence of TA: inhibited the plasminogen activation induced by tPA
tPA; listed as tPA^Ser481Ala
  plasminogen activation by tPA in the absence of fibrin, in the presence of TA: inhibit plasminogen activation
tPA; plasminogen 500 nM, WT-tPA 50 nM, mutants 100 nM or TA 200 nM alone
  plasminogen activation by tPA in the absence of fibrin (change in OD per minute): Neither tPA-S^481A nor tPA-S^481A-DS inhibited; also recorded: had no effect
uPA [3]
  plasminogen activation by uPA in the absence of fibrin, in the presence of TA: inhibited the activation of plasminogen by uPA
uPA [3]; listed as tPA^Ser481Ala
  plasminogen activation by uPA in the absence of fibrin, in the presence of TA: inhibit plasminogen activation
uPA [3]; plasminogen 500 nM, uPA 20 nM, mutants 100 nM or TA 200 nM alone
  plasminogen activation by uPA in the absence of fibrin (change in OD per minute): Neither tPA-S^481A nor tPA-S^481A-DS inhibited; also recorded: had no effect
WT mice subjected to CHI; WT mice given WT-tPA 5 mg/kg immediately after CHI plus equimolar mutant
  intracerebral hemorrhage increased by injected WT-tPA post CHI: could be inhibited
WT mice subjected to CHI; WT mice, 1 mg/kg IV, measured 2 hours after CHI, FIG. 4A, 1 mg/kg
  plasma levels of d-Dimers post CHI: significantly attenuated the increase in d-Dimers; also recorded: inhibited the formation of d-Dimers
WT mice subjected to CHI; WT mice, 1 mg/kg IV, measured 2 hours after CHI, FIG. 4B, 1 mg/kg
  platelet counts / thrombocytopenia post CHI: prevented the development of thrombocytopenia; also recorded: inhibited the development of thrombocytopenia
WT mice subjected to CHI; WT mice, IV after CHI, CSF obtained 2 hours after CHI, tested on plasma derived clots
  CSF fibrinolytic activity post CHI: inhibited CSF fibrinolytic activity
WT mice subjected to CHI; WT mice, IV immediately after or 2 hrs after CHI, Hgb at 2 or 8 hrs, MRI at 24 hrs
  intracerebral hemorrhage (MRI, extravasation of Hgb) post CHI: significantly attenuated the expansion of intracerebral hemorrhage; also recorded: inhibited
WT mice subjected to CHI; combination in optimal concentrations, FIG. 3B
  inhibition of intracerebral hemorrhage compared with combination of TA and aprotinin: comparable to the inhibition induced by a combination of TA and aprotinin
WT mice subjected to CHI; given 2 hrs after CHI, FIG. 5
  neuroprotection (neurological severity score, NSS): the difference in neuroprotection provided by the two tPA variants vanished
WT mice subjected to CHI; given IV immediately after CHI, 1 mg/kg, FIG. 5
  neuroprotection (neurological severity score, NSS, 24 hours after CHI): exerts neuroprotection
WT mice subjected to CHI; optimal concentrations of TA or aprotinin, FIG. 3B
  potency as inhibitor of intracerebral hemorrhage compared with TA or aprotinin: more potent inhibitors of intracerebral hemorrhage than optimal concentrations of TA or aprotinin
[4]
  expansion of post traumatic ICH in knock-out mice given exogenous WT-tPA or WT-uPA: inhibited the expansion of the post traumatic ICH
[5]
  post-traumatic intracerebral hemorrhage (brain hemoglobin) in warfarin-anticoagulated mice: almost totally inhibited
NMDA-Rs
  activation of NMDA-Rs by WT-tPA: inhibited activation of NMDA-Rs by WT-tPA
